Results: US20240053350A1

Biological target: immobilized peptides having F NTAA residue (F-P2 peptides of the 484-peptide P1-P2 array)
Test: cell-based or functional assay

nucleotides inserted into the recording tag per encoding cycle (nt per encoding cycle): 5 to 8
B1: TdT-F4R10 conjugate (designed binder)
chain: GSSHHHHHHGGSSDSPVDLKPKPKVKPKLERPKLYKVMLLNDNSTPGEFVTVVLKAVFRMSEDTGRRVMMTAHRFGSAVVVVSERDIAETKAKEATDLGKEAGFPLMFTTEPEEGAPSGAPSGAPSGAPSGAPSGAPSSPSPVPGSQNVPAPAVKKISQYACQRRTTLNNYNQLFTDALDILAENDELRENEGSCLAFMRASSVLKSLPFPITSMKDTEGIPCLGDKVKSIIEGIIEDGESSEAKAVLNDERYKSFKLFTSVFGVGLKTAEKWFRMGFRTLSKIQSDKSLRFTQMQKAGFLYYEDLVSCVNRPEAEAVSMLVKEAVVTFLPDALVTMTGGFRRGKMTGHDVDFLITSPEATEDEEQQLLHKVTDFWKQQGLLLYCDILESTFEKFKQPSRKVDALDHFQKCFLILKLDHGRVHSEKSGQQEGKGWKAIRVDLVMCPYDRRAFALLGWTGSRQFERDLRRYATHERKMMLDNHALYDRTKRVFLEAESEEEIFAHLGLDYIEPWERNA
